Reference: patent US20240327475A1 (UNIVERSITY OF MARYLAND COLLEGE PARK, published 2024)

T1: control non-targeted ASM (Olipudase); full recombinant ASM produced by He et al. (1999), which served as … (human, UniProt P17405 62-631)
T1 construct: also called control ASM
T1 sequence (looked up): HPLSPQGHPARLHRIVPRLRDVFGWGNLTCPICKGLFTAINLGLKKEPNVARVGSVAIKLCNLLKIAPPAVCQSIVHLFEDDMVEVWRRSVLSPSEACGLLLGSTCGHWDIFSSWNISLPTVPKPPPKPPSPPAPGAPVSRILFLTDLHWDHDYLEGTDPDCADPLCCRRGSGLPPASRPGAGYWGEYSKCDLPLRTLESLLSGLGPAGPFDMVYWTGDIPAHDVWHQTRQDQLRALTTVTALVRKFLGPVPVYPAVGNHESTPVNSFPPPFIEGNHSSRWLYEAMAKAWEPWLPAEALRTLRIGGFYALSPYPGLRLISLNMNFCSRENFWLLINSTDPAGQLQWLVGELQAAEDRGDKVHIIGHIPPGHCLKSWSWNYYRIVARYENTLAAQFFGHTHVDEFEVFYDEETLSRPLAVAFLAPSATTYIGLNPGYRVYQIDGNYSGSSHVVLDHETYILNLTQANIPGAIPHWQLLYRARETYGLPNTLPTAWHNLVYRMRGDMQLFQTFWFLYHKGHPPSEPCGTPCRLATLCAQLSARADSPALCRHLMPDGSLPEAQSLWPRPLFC

B1: ICAM-1 on human cells (HUVEC; human brain endothelial cells and astrocytes of the BBB model; iPS-derived neurons from a Gaucher patient) (receptor, UniProt P05362 28-532, looked up)
chain: QTSVSPSKVILPRGGSVLVTCSTSCDQPKLLGIETPLPKKELLLPGNNRKVYELSNVQEDSQPMCYSNCPDGQSTAKTFLTVYWTPERVELAPLPSWQPVGKNLTLRCQVEGGAPRANLTVVLLRGEKELKREPAVGEPAEVTTTVLVRRDHHGANFSCRTELDLRPQGLELFENTSAPYQLQTFVLPATPPQLVSPRVLEVDTQGTVVCSLDGLFPVSEAQVHLALGDQRLNPTVTYGNDSFSAKASVSVTAEDEGTQRLTCAVILGNQSQETLQTVTIYSFPAPNVILTKPEVSEGTEVTVKCEAHPRAKVTLNGVPAQPLGPRAQLLLKATPEDNGRSFSCSATLEVAGQLIHKNQTRELRVLYGPRLDERDCPGNWTWPENSQQTPMCQAWGNPLPELKCLKDGTFPLPIGESVTVTRDLEGTYLCRARSTQGEVTRKVTVNVLSPRYEIVIITVVAAAVIMGTAGLSTYLYNRQRKIKKYRLQQAQKGTPMKPNTQATPP
notes: whole, on cells; also called ICAM receptor; intercellular adhesion molecule-1

Tests used:
[1] = target: T1, control non-targeted ASM (Olipudase); …; assay: Incubation with HUVEC cells (known to express ICAM-1) for 3 h at 37° C., then fixation, permeabilization and anti-ASM + FITC-secondary antibody staining (cell association and uptake)
[2] = target: B1; assay: cell-based or functional assay

binding result [1]	association to iPS-derived neurons from a Gaucher patient, fold over control non-targeted enzyme [2]	Binder
no binding	–	B1
–	~3 fold	targeted fusion GCase protein J in Example 1 (human GCase with five tandem-repeats of the 2γ3 ICAM-1-targeting peptide at the amino terminus), after … (enzyme, pre-labeled with 125Iodine) NNQKIVNIKEKVAQIEAGGGGSGGGGSNNQKIVNIKEKVAQIEAGGGGSGGGGSNNQKIVNIKEKVAQIEAGGGGSGGGGSNNQKIVNIKEKVAQIEAGGGGSGGGGSNNQKIVNIKEKVAQIEAGGGGSGGGGSGFLGARPCIPKSFGYSSVVCVCNATYCDSFDPPTFPALGTFSRYESTRSGRRMELSMGPIQANHTGTGLLLTLQPEQKFQKVKGFGGAMTDAAALNILALSPPAQNLLLKSYFSEEGIGYNIIRVPMASCDFSIRTYTYADTPDDFQLHNFSLPEEDTKLKIPLIHRALQLAQRPVSLLASPWTSPTWLKTNGAVNGKGSLKGQPGDIYHQTWARYFVKFLDAYAEHKLQFWAVTAENEPSAGLLSGYPFQCLGFTPEHQRDFIARDLGPTLANSTHHNVRLLMLDDQRLLLPHWAKVVLTDPEAAKYVHGIAVHWYLDFLAPAKATLGETHRLFPNTMLFASEACVGSKFWEQSVRLGSWDRGMQYSHSIITNLLYHVVGWTDWNLALNPEGGPNWVRNFVDSPIIVDITKDTFYKQPMFYHLGHFSKFIPEGSQRVGLVASQKNDLDAVALMHPDGSAVVVVLNRSSKDVPLTIKDPAVGFLETISPGYSIHTYLWRRQ
